Test [1] has as its target kpca_human PRKCA (UniProt P17252).
In test [2] the target is kapca_human PRKACA (UniProt P17612).

As to “Serine/threonine-protein kinase pim-1 (Homo sapiens), P11309-2 K158R”, the “effect of a mutation on the interaction” value in test [1] and in test [2] was “with no effect” throughout.

(Values after IntAct's records for PubMed 30017192.)
